Laboratory results reported in US20240018252A1 (Pfizer, published 2024).

Assays:
human BCMA = target: T1, human BCMA (human, UniProt Q02223 1-54); experiment: SPR, immobilised IgG, 37° C
T1 construct: also called huBCMA; hBCMA
T1 sequence: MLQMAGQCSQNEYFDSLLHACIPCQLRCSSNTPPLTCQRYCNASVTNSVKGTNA

cyBCMA = target: T2, cyBCMA (cynomolgus, UniProt A0A2K5UD97 1-53); experiment: SPR, immobilised IgG, 37° C
T2 construct: Soluble analyte in SPR; construct not described; also called cyno BCMA
T2 sequence (A0A2K5UD97 entry or part of it): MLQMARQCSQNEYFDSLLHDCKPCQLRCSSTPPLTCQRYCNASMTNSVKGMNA

Binder | T½ (human BCMA) [min] | T½ (cyBCMA) [min]
L3.PY/L1.AH/H2.QR (antibody, V domains shown, IgG in the assay) VH: EVQLLESGGGLVQPGGSLRLSCAASGFTFGSYAMTWVRQAPGKGLEWVSAISGSGGNTFYADQRKGRFTISRDNSKNTLYLQMNSLRAEDTAVYYCARVSPIASGMDYWGQGTLVTVSS VL: EIVLTQSPGTLSLSPGERATLSCRASQSVSAHYLAWYQQKPGQAPRLLIYGASSRATGIPDRFSGSGSGTDFTLTISRLEPEDFAVYYCQHYPYPPSFTFGQGTKVEIK | 6.39 | 2.35
L3.PY/L1.PS/H2.LT (antibody, V domains shown, IgG in the assay) VH: EVQLLESGGGLVQPGGSLRLSCAASGFTFGSYAMTWVRQAPGKGLEWVSAISLTGGNTFYADSVKGRFTISRDNSKNTLYLQMNSLRAEDTAVYYCARVSPIASGMDYWGQGTLVTVSS VL: EIVLTQSPGTLSLSPGERATLSCRASQSVSSSYPSWYQQKPGQAPRLLIYGASSRATGIPDRFSGSGSGTDFTLTISRLEPEDFAVYYCQHYPYPPSFTFGQGTKVEIK | 2.49 | 2.81
L3.PY/L1.PS/H3.AQ (antibody, V domains shown, IgG in the assay) VH: EVQLLESGGGLVQPGGSLRLSCAASGFTFGSYAMTWVRQAPGKGLEWVSAISGSGGNTFYADSVKGRFTISRDNSKNTLYLQMNSLRAEDTAVYYCARVSPIAAQMDYWGQGTLVTVSS VL: EIVLTQSPGTLSLSPGERATLSCRASQSVSSSYPSWYQQKPGQAPRLLIYGASSRATGIPDRFSGSGSGTDFTLTISRLEPEDFAVYYCQHYPYPPSFTFGQGTKVEIK | 6.46 | 2.67
L3.PY/L1.PS/H2.QL (antibody, V domains shown, IgG in the assay) VH: EVQLLESGGGLVQPGGSLRLSCAASGFTFGSYAMTWVRQAPGKGLEWVSAISGSGGNTFYADQLKGRFTISRDNSKNTLYLQMNSLRAEDTAVYYCARVSPIASGMDYWGQGTLVTVSS VL: EIVLTQSPGTLSLSPGERATLSCRASQSVSSSYPSWYQQKPGQAPRLLIYGASSRATGIPDRFSGSGSGTDFTLTISRLEPEDFAVYYCQHYPYPPSFTFGQGTKVEIK | 0.04 | 18.2
L3.PY/L1.PS/H2.QR (antibody, V domains shown, IgG in the assay) VH: EVQLLESGGGLVQPGGSLRLSCAASGFTFGSYAMTWVRQAPGKGLEWVSAISGSGGNTFYADQRKGRFTISRDNSKNTLYLQMNSLRAEDTAVYYCARVSPIASGMDYWGQGTLVTVSS VL: EIVLTQSPGTLSLSPGERATLSCRASQSVSSSYPSWYQQKPGQAPRLLIYGASSRATGIPDRFSGSGSGTDFTLTISRLEPEDFAVYYCQHYPYPPSFTFGQGTKVEIK | 0.11 | 17.2
L3.PY/L3.KF/P6E01 (antibody, V domains shown, IgG in the assay) VH: EVQLLESGGGLVQPGGSLRLSCAASGFTFGSYAMTWVRQAPGKGLEWVSAISGSGGNTFYADSVKGRFTISRDNSKNTLYLQMNSLRAEDTAVYYCARVSPIASGMDYWGQGTLVTVSS VL: EIVLTQSPGTLSLSPGERATLSCRASQSVSSSYLAWYQQKPGQAPRLLIYGASSRATGIPDRFSGSGSGTDFTLTISRLEPEDFAVYYCKFYPYPPSFTFGQGTKVEIK | 5.56 | 1.39
L3.PY/L1.AH/P6E01 (antibody, V domains shown, IgG in the assay) VH: EVQLLESGGGLVQPGGSLRLSCAASGFTFGSYAMTWVRQAPGKGLEWVSAISGSGGNTFYADSVKGRFTISRDNSKNTLYLQMNSLRAEDTAVYYCARVSPIASGMDYWGQGTLVTVSS VL: EIVLTQSPGTLSLSPGERATLSCRASQSVSAHYLAWYQQKPGQAPRLLIYGASSRATGIPDRFSGSGSGTDFTLTISRLEPEDFAVYYCQHYPYPPSFTFGQGTKVEIK | 9.19 | 2.02
L3.PY/L1.PS/H3.TAQ (antibody, V domains shown, IgG in the assay) VH: EVQLLESGGGLVQPGGSLRLSCAASGFTFGSYAMTWVRQAPGKGLEWVSAISGSGGNTFYADSVKGRFTISRDNSKNTLYLQMNSLRAEDTAVYYCTRVSPIAAQMDYWGQGTLVTVSS VL: EIVLTQSPGTLSLSPGERATLSCRASQSVSSSYPSWYQQKPGQAPRLLIYGASSRATGIPDRFSGSGSGTDFTLTISRLEPEDFAVYYCQHYPYPPSFTFGQGTKVEIK | 4.7 | 2.09
L3.PY/L1.PS/H2.HA (antibody, V domains shown, IgG in the assay) VH: EVQLLESGGGLVQPGGSLRLSCAASGFTFGSYAMTWVRQAPGKGLEWVSAISHAGGNTFYADSVKGRFTISRDNSKNTLYLQMNSLRAEDTAVYYCARVSPIASGMDYWGQGTLVTVSS VL: EIVLTQSPGTLSLSPGERATLSCRASQSVSSSYPSWYQQKPGQAPRLLIYGASSRATGIPDRFSGSGSGTDFTLTISRLEPEDFAVYYCQHYPYPPSFTFGQGTKVEIK | 1.09 | 4.3
L3.PY/L1.AH/H3.AE (antibody, V domains shown, IgG in the assay) VH: EVQLLESGGGLVQPGGSLRLSCAASGFTFGSYAMTWVRQAPGKGLEWVSAISGSGGNTFYADSVKGRFTISRDNSKNTLYLQMNSLRAEDTAVYYCARVSPIAAEMDYWGQGTLVTVSS VL: EIVLTQSPGTLSLSPGERATLSCRASQSVSAHYLAWYQQKPGQAPRLLIYGASSRATGIPDRFSGSGSGTDFTLTISRLEPEDFAVYYCQHYPYPPSFTFGQGTKVEIK | 6.7 | 3.25
L3.PY/L1.AH/H2.YQ (antibody, V domains shown, IgG in the assay) VH: EVQLLESGGGLVQPGGSLRLSCAASGFTFGSYAMTWVRQAPGKGLEWVSAISYQGGNTFYADSVKGRFTISRDNSKNTLYLQMNSLRAEDTAVYYCARVSPIASGMDYWGQGTLVTVSS VL: EIVLTQSPGTLSLSPGERATLSCRASQSVSAHYLAWYQQKPGQAPRLLIYGASSRATGIPDRFSGSGSGTDFTLTISRLEPEDFAVYYCQHYPYPPSFTFGQGTKVEIK | 6 | 2.68
L3.PY/L1.PS/P6E01 (antibody, V domains shown, IgG in the assay) VH: EVQLLESGGGLVQPGGSLRLSCAASGFTFGSYAMTWVRQAPGKGLEWVSAISGSGGNTFYADSVKGRFTISRDNSKNTLYLQMNSLRAEDTAVYYCARVSPIASGMDYWGQGTLVTVSS VL: EIVLTQSPGTLSLSPGERATLSCRASQSVSSSYPSWYQQKPGQAPRLLIYGASSRATGIPDRFSGSGSGTDFTLTISRLEPEDFAVYYCQHYPYPPSFTFGQGTKVEIK | 10.2 | 1.91
L3.PY/L1.PS/H2.YQ (antibody, V domains shown, IgG in the assay) VH: EVQLLESGGGLVQPGGSLRLSCAASGFTFGSYAMTWVRQAPGKGLEWVSAISYQGGNTFYADSVKGRFTISRDNSKNTLYLQMNSLRAEDTAVYYCARVSPIASGMDYWGQGTLVTVSS VL: EIVLTQSPGTLSLSPGERATLSCRASQSVSSSYPSWYQQKPGQAPRLLIYGASSRATGIPDRFSGSGSGTDFTLTISRLEPEDFAVYYCQHYPYPPSFTFGQGTKVEIK | 2.69 | 3.09
L3.PY/L1.AH/H3.AQ (antibody, V domains shown, IgG in the assay) VH: EVQLLESGGGLVQPGGSLRLSCAASGFTFGSYAMTWVRQAPGKGLEWVSAISGSGGNTFYADSVKGRFTISRDNSKNTLYLQMNSLRAEDTAVYYCARVSPIAAQMDYWGQGTLVTVSS VL: EIVLTQSPGTLSLSPGERATLSCRASQSVSAHYLAWYQQKPGQAPRLLIYGASSRATGIPDRFSGSGSGTDFTLTISRLEPEDFAVYYCQHYPYPPSFTFGQGTKVEIK | 5.85 | 2.9
L3.PY/L1.PS/H3.YA (antibody, V domains shown, IgG in the assay) VH: EVQLLESGGGLVQPGGSLRLSCAASGFTFGSYAMTWVRQAPGKGLEWVSAISGSGGNTFYADSVKGRFTISRDNSKNTLYLQMNSLRAEDTAVYYCARVSPIYAGMDYWGQGTLVTVSS VL: EIVLTQSPGTLSLSPGERATLSCRASQSVSSSYPSWYQQKPGQAPRLLIYGASSRATGIPDRFSGSGSGTDFTLTISRLEPEDFAVYYCQHYPYPPSFTFGQGTKVEIK | 1.28 | 1.16
L3.PY/L1.PH/P6E01 (antibody, V domains shown, IgG in the assay) VH: EVQLLESGGGLVQPGGSLRLSCAASGFTFGSYAMTWVRQAPGKGLEWVSAISGSGGNTFYADSVKGRFTISRDNSKNTLYLQMNSLRAEDTAVYYCARVSPIASGMDYWGQGTLVTVSS VL: EIVLTQSPGTLSLSPGERATLSCRASQSVSPHYLAWYQQKPGQAPRLLIYGASSRATGIPDRFSGSGSGTDFTLTISRLEPEDFAVYYCQHYPYPPSFTFGQGTKVEIK | 12.7 | 1.46
L3.PY/L1.FF/P6E01 (antibody, V domains shown, IgG in the assay) VH: EVQLLESGGGLVQPGGSLRLSCAASGFTFGSYAMTWVRQAPGKGLEWVSAISGSGGNTFYADSVKGRFTISRDNSKNTLYLQMNSLRAEDTAVYYCARVSPIASGMDYWGQGTLVTVSS VL: EIVLTQSPGTLSLSPGERATLSCRASQSVSSFFLAWYQQKPGQAPRLLIYGASSRATGIPDRFSGSGSGTDFTLTISRLEPEDFAVYYCQHYPYPPSFTFGQGTKVEIK | 8.18 | 1.96
L3.PY/L1.PS/H2.DY (antibody, V domains shown, IgG in the assay) VH: EVQLLESGGGLVQPGGSLRLSCAASGFTFGSYAMTWVRQAPGKGLEWVSAIDYSGGNTFYADSVKGRFTISRDNSKNTLYLQMNSLRAEDTAVYYCARVSPIASGMDYWGQGTLVTVSS VL: EIVLTQSPGTLSLSPGERATLSCRASQSVSSSYPSWYQQKPGQAPRLLIYGASSRATGIPDRFSGSGSGTDFTLTISRLEPEDFAVYYCQHYPYPPSFTFGQGTKVEIK | 3.2 | 3.06
L3.PY/L1.AH/H3.YA (antibody, V domains shown, IgG in the assay) VH: EVQLLESGGGLVQPGGSLRLSCAASGFTFGSYAMTWVRQAPGKGLEWVSAISGSGGNTFYADSVKGRFTISRDNSKNTLYLQMNSLRAEDTAVYYCARVSPIYAGMDYWGQGTLVTVSS VL: EIVLTQSPGTLSLSPGERATLSCRASQSVSAHYLAWYQQKPGQAPRLLIYGASSRATGIPDRFSGSGSGTDFTLTISRLEPEDFAVYYCQHYPYPPSFTFGQGTKVEIK | 7.73 | 2.2
L3.PY/L1.PS/H3.AE (antibody, V domains shown, IgG in the assay) VH: EVQLLESGGGLVQPGGSLRLSCAASGFTFGSYAMTWVRQAPGKGLEWVSAISGSGGNTFYADSVKGRFTISRDNSKNTLYLQMNSLRAEDTAVYYCARVSPIAAEMDYWGQGTLVTVSS VL: EIVLTQSPGTLSLSPGERATLSCRASQSVSSSYPSWYQQKPGQAPRLLIYGASSRATGIPDRFSGSGSGTDFTLTISRLEPEDFAVYYCQHYPYPPSFTFGQGTKVEIK | 7.93 | 2.8
